Source: patent US10919943B2, “Mutant proteins enabling agrochemical control of plant gene expression” (The Regents of the University of California, priority 2016, dated 2021)
Marks after values point to notes of the source that are not given here.

Key:
[1] = Phosphatase activity of recombinant GST-HAB1 proteins (4-methylumbeliferyl phosphate); format: biochemical; conditions: 1 μg protein, percent control (GST-HAB1); FIG. 7
From the text: In the presence of ABA, wild type PYR1 binds to HAB1 and docks into its active site, which inhibits its enzymatic activity by blocking access of substrates. To characterize the orthogonal PYR1^! and HAB1^! interaction biochemically, we produced recombinant forms of each protein in E. coli, along with the wild type form, and tested the wild type and orthogonal mutant for their ability to inhibit HAB1 and HAB1^! activities in vitro. We cloned PYR1^! into pET28 to generate 6×-His tagged receptor and cloned HAB1^! into pGEX-4T-1 to create a GST-fusion protein. The previously constructed (S.-Y. Park et al., 2009) wild type 6×-His-PYR1 and GST-HAB1 constructs were used for producing recombinant wild type proteins. The 6×-His-tagged receptors and GST-tagged PP2Cs were expressed and purified as previously described. […] The plates were read using a Victor 2 plate reader (PerkinElmer) (355 nm excitation, 460 nm emission) and assays run in triplicate. The PP2C activity values reported are expressed as percent control values, which were calculated by including the carrier solvent (1% DMSO) and the specific receptor assayed, but no ligand. […]
To characterize HAB1^!-3 and HAB1* in vitro, we cloned them into pGEX-4T-1 to create GST-fusion proteins. […] The PP2C activity values reported are expressed as percent control (GST-HAB1) from triplicate measurements.

[2] = target: T1, PYR1*^-MANDI (Arabidopsis thaliana, UniProt O49686, A160V/F108A/F159V/K59R/M158I/S122G/T162D/V81I/Y58H); test: Yeast two hybrid, mandipropamid-induced interaction of HAB1 variants with pBD-PYR1*^-MANDI; format: cell-based; conditions: for effect of mutation on mandipropamid responsiveness of HAB1^!-3: selection on 500 nM mandipropamid
T1 construct: expressed in transfected cells; host or cells: S. cerevisiae strain MAV99 (selection)
T1 sequence (O49686 1-191 Y58H/K59R/V81I/F108A/S122G/M158I/F159V/A160V/T162D): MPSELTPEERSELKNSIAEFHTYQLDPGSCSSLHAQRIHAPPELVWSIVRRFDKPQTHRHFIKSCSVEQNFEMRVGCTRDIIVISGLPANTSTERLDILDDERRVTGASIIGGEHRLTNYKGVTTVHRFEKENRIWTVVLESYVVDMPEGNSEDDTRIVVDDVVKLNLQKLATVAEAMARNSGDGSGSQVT
From the text: To investigate the effects of overexpressing HAB1^!-2 in Arabidopsis, we used Agrobacterium mediated transformation to generate 35S::GFP-HAB1^!-2 transgenic plants. HAB1^!-2 was cloned from pACT-HAB1^!-2 into pEGAD, a binary vector suitable for plant transformation, generating a 35S-driven GFP-HAB1^!-2 fusion protein. The clone was transformed into Agrobacterium and the floral dip method used to transform Arabidopsis. After selection of T0 seed on soil containing glufosinate, several T1 seedlings were identified. […] As an alternate strategy, we eliminated HAB1's catalytic activity by introducing a mutation in a conserved metal-ion binding residue (D204), which is homologous to D131A mutation in ABI1, previously shown to eliminate phosphatase activity without disrupting wild type receptor-ABI1 interactions (Liang et al., 2011). We used QuickChange mutagenesis to introduce the D204A mutation into pACT-HAB1^!-2, generating pACT-HAB1^!-3. When tested for mandipropamid induced interactions with pBD-PYR1*^-MANDI, HAB1^!-3 is ˜10-fold less sensitive to mandipropamid relative to HAB1^!-2 (FIG. 5).
D204 is located within HAB1's catalytic active site and binds to one of 3 catalytic Mg^++ ions that participate in catalysis. […] It is likely that disruptions to active site structure introduced by D204A destabilize the PYR1*^-MANDI/HAB1^!-3 interaction relative to HAB1^!-2. We reasoned that suppressor mutations in other HAB1 interface or active site residues could restore sensitivity by strengthening interactions with PYR1*^-MANDI. To identify such suppressors, we mutagenized the pACT-HAB1^!-3 template using NNK mutagenesis in 28 residues located with at the PYR1 binding interface. The residues targeted were: R199, S200, E201, E203, D243, G244, H245, G246, G247, S322, E323, T324, D346, K365, K381, 1383, Q384, W385, Q386, R389, F391, G392, Y404, S431, G433, D436, D492 and N394. The pACT-HAB1^!-3 template was mutagenized in 28 separate NNK mutagenesis reactions using the QuickChange protocol. Mini-libraries, each containing ˜1000 clones, were made for each NNK reaction and plasmid DNA for the 28 mutations prepared, pooled, and then transformed into S. cerevisiae strain MAV99 co-transformed with pBD-PYR1*^-MANDI, and then plated onto selective SD(-Leu,-Trp,-Ura) agar media supplemented with 500 nM mandipropamid. […] S322D and R199A were combined using the Lightning Multi-site Mutagenesis™ (Agilent, USA) method, and the resultant pentuple mutant tested in combination with pBD-PYR1*^-MANDI for sensitivity to mandipropamid using β-galactosidase assays.

| Molecule | catalytic activity in vitro [1] | fold less sensitive to mandipropamid relative to HAB1^!-2 ([2]; FIG. 5) [fold] | effect of mutation on mandipropamid responsiveness of HAB1^!-3 [2] |
| --- | --- | --- | --- |
| HAB1^!-3: HAB1^!-2 with the D204A mutation, catalytically inactive (protein, left off: small tags and cut ends) MTPAVAMTLSLAANTMCESSPVEITQLKNVTDAADLLSDSENQSFCNGGTECTMEDVSELEEVGEQDLLKTLSDTRSGSSNVFDEDDVLSVVEDNSAVISEGLLVVDAGSELSLSNTAMEIDNGRVLATAIIVGESSIEQVPTAEVLIAGVNQDTNTSEVVIRLPDENSNHLVKGRSVYELDCIPLWGTVSIQGNRSEMEAAFAVSPHFLKLPIKMLMGDHEGMSPSLTHLTGHFFGVYDGHGGHKVADYCRDRLHFALAEEIERIKDELCKRNTGEGRQVQWDKVFTSCFLTVDGEIEGKIGRAVVGSSDKVLEAVASETVGSTAVVALVCSSHIVVSNCGDSRAVLFRGKEAMPLSVDHKPDREDEYARIENAGGKVIQWQGARVFGRLAMSRSIGDRYLKPYVIPEPEVTFMPRSREDECLILASDGLWDVMNNQEVCEIARRRILMWHKKNGAPPLAERGKGIDPACQAAADYLSMLALQKGSKDNISIIVIDLKAQAKFKTRT | Neither HAB1^!-3 or HAB1* display detectable catalytic activity | ~10 |  |
| S322D (protein, listed as Arabidopsis thaliana) MEEMTPAVAMTLSLAANTMCESSPVEITQLKNVTDAADLLSDSENQSFCNGGTECTMEDVSELEEVGEQDLLKTLSDTRSGSSNVFDEDDVLSVVEDNSAVISEGLLVVDAGSELSLSNTAMEIDNGRVLATAIIVGESSIEQVPTAEVLIAGVNQDTNTSEVVIRLPDENSNHLVKGRSVYELDCIPLWGTVSIQGNRSEMEDAFAVSPHFLKLPIKMLMGDHEGMSPSLTHLTGHFFGVYDGHGGHKVADYCRDRLHFALAEEIERIKDELCKRNTGEGRQVQWDKVFTSCFLTVDGEIEGKIGRAVVGSSDKVLEAVADETVGSTAVVALVCSSHIVVSNCGDSRAVLFRGKEAMPLSVDHKPDREDEYARIENAGGKVIQWQGARVFGVLAMSRSIGDRYLKPYVIPEPEVTFMPRSREDECLILASDGLWDVMNNQEVCEIARRRILMWHKKNGAPPLAERGKGIDPACQAAADYLSMLALQKGSKDNISIIVIDLKAQRKFKTRT |  |  | enhance responsiveness of HAB1^!-3 |
| R199A (protein, listed as Arabidopsis thaliana) MEEMTPAVAMTLSLAANTMCESSPVEITQLKNVTDAADLLSDSENQSFCNGGTECTMEDVSELEEVGEQDLLKTLSDTRSGSSNVFDEDDVLSVVEDNSAVISEGLLVVDAGSELSLSNTAMEIDNGRVLATAIIVGESSIEQVPTAEVLIAGVNQDTNTSEVVIRLPDENSNHLVKGRSVYELDCIPLWGTVSIQGNASEMEDAFAVSPHFLKLPIKMLMGDHEGMSPSLTHLTGHFFGVYDGHGGHKVADYCRDRLHFALAEEIERIKDELCKRNTGEGRQVQWDKVFTSCFLTVDGEIEGKIGRAVVGSSDKVLEAVASETVGSTAVVALVCSSHIVVSNCGDSRAVLFRGKEAMPLSVDHKPDREDEYARIENAGGKVIQWQGARVFGVLAMSRSIGDRYLKPYVIPEPEVTFMPRSREDECLILASDGLWDVMNNQEVCEIARRRILMWHKKNGAPPLAERGKGIDPACQAAADYLSMLALQKGSKDNISIIVIDLKAQRKFKTRT |  |  | enhance responsiveness of HAB1^!-3 |
| S322E (protein, listed as Arabidopsis thaliana) MEEMTPAVAMTLSLAANTMCESSPVEITQLKNVTDAADLLSDSENQSFCNGGTECTMEDVSELEEVGEQDLLKTLSDTRSGSSNVFDEDDVLSVVEDNSAVISEGLLVVDAGSELSLSNTAMEIDNGRVLATAIIVGESSIEQVPTAEVLIAGVNQDTNTSEVVIRLPDENSNHLVKGRSVYELDCIPLWGTVSIQGNRSEMEDAFAVSPHFLKLPIKMLMGDHEGMSPSLTHLTGHFFGVYDGHGGHKVADYCRDRLHFALAEEIERIKDELCKRNTGEGRQVQWDKVFTSCFLTVDGEIEGKIGRAVVGSSDKVLEAVAEETVGSTAVVALVCSSHIVVSNCGDSRAVLFRGKEAMPLSVDHKPDREDEYARIENAGGKVIQWQGARVFGVLAMSRSIGDRYLKPYVIPEPEVTFMPRSREDECLILASDGLWDVMNNQEVCEIARRRILMWHKKNGAPPLAERGKGIDPACQAAADYLSMLALQKGSKDNISIIVIDLKAQRKFKTRT |  |  | enhance responsiveness of HAB1^!-3 |
